# Source: the supplement of paper PMC9732359
# ± gives the uncertainty stated by the source.
# Assay: protein stability index of a GFP-peptide fusion (yeast GPS) (PSI 1-4); higher = more stable; sorted into four equal gates, so the index is relative within each strain
# Conditions: doa10∆
# Method in brief: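 Plasmids isolated from each sorting gate were PCR-amplified and Illumina-sequenced, and barcodes assigned the reads to strains. The gates, four of equal size, were set by GFP/Cherry fluorescence ratio on mid-log cultures in leucine-free medium. These cultures were yeast carrying a pooled library of tiled 17-residue yeast protein peptides fused downstream of GFP on a plasmid that also expresses Cherry. The protein stability index is the sum of every gate's read frequency times its gate number.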
row,Sequence,protein stability index
1,SNGGGKVKPIRGFCQRL [RPO31],2.94 ± 0.13
2,SNGNNLPLNKPRLEKLI [RGR1],3.27 ± 0.052
3,SNIITKSLVQYIELLPN [DIS3],2.64 ± 0.072
4,SNIPRGSVIQTHIAESA [MCD1],2.81 ± 0.1
5,SNLEKLPKYKEKKAASA [MED7],2.14 ± 0.06
6,SNLSPDLKFKRHKNKHI [DSN1],2.71 ± 0.1
7,SNLTIYPIYELLMSCPR [GRR1],1.72 ± 0.083
8,SNMILGSVELSTGDYTF [YML103C/NUP188],2.48 ± 0.055
9,SNMQKSLLPYYHLTKAV [RPN3],2.02 ± 0.038
10,SNNITSGLNRAISTGNW [RET1],3.13 ± 0.11
11,SNQFKRSLATAVATPKA [COR1],1.55 ± 0.051
12,SNQRFKDLQWLEFARIT [SIN4],3.17 ± 0.064
13,SNRCIVFSKKEPFPHSK [CSN12],2.58 ± 0.052
14,SNSDNCPEEFAESMCQE [SNF5],3.25 ± 0.065
15,SNTYKEERSNNLLTPQP [MCD1],2.76 ± 0.078
16,SNVFGSNNSTTNTFGSN [YJL041W/NSP1],3.08 ± 0.063
17,SNYSRTMTISHLLLGFQ [YJL039C/NUP192],1.82 ± 0.05
18,SPHYNSQKQTLIKKPLT [SSN3],2.52 ± 0.064
19,SPISDSRDELIRLAKTL [RPN10],1.84 ± 0.095
20,SPIVNVLEDVYRCFAQL [RRI2],2.53 ± 0.18
21,SPMGNAYSMGAQNQGGQ [PGD1],2.57 ± 0.062
22,SPMLYKVPDISSDGQLK [BRR2],2.52 ± 0.047
23,SPNPTLQPVIPGGAASK [SNF5],3.23 ± 0.093
24,SPSYSPTSPSYSPTSPS [RPO21],2 ± 0.032
25,SPVSSVHTANFSERGSN [MED2],2.71 ± 0.083
26,SPVYDVDPRIINSENDY [NUT1],2.92 ± 0.08

row,Sequence,protein stability index
1,SPYNADFDGDEMNLHVP [RPO21],3.15 ± 0.076
2,SQCRLHELREKERISVA [PRE2],2.25 ± 0.11
3,SQEREFSLLVKAEIPPE [SIN4],3.04 ± 0.1
4,SQESINQKLALVIKSGK [RPL30],2.32 ± 0.097
5,SQFNGSGNGSNPNTNTN [PGD1],2.48 ± 0.072
6,SQHGQGNNPSWVNNPKK [YDL088C/ASM4],3.2 ± 0.14
7,SQKAKLMTFNAETKSYD [YLR335W/NUP2],2.55 ± 0.065
8,SQQNIVPNSSDQAELPN [SNF2],2.73 ± 0.06
9,SQSSNANICLTFLESIN [SIN4],2.42 ± 0.048
10,SQTMAETYVASYVVPRL [ECM29],1.85 ± 0.042
11,SQTTQLAGMDVEDALDK [FAS2],3.31 ± 0.094
12,SQWNDSSIDKIEDRDFL [SIR3],2.99 ± 0.17
13,SQYSTMVNIGLHNLNEY [RGR1],1.16 ± 0.14
14,SRDLDISSSTQCLRFLK [POP6],2.46 ± 0.1
15,SRGIVIGSGAMSPLECR [RPP1],1.69 ± 0.031
16,SRSRSSIRSISPAGKYK [ESC2],2.84 ± 0.14
17,SRSTEKKNDMNTSAKNK [SIR4],2.52 ± 0.051
18,SSDGALCMDSSYIGTII [POP1],3.09 ± 0.09
19,SSEILSYLSNSLDTSAS [YML103C/NUP188],2.96 ± 0.091
20,SSENNQIILAYIKYNIL [SRP68],3.06 ± 0.065
21,SSFSKKTLTEEVTKSSH [YIL149C/MLP2],2.69 ± 0.054
22,SSIQESLLSLVGHLSIL [ECM29],2.01 ± 0.045
23,SSISVMGENEKPDVTYA [RPT3],2.92 ± 0.2
24,SSLALVFALHKYKPTPL [SMC4],2.18 ± 0.052
25,SSLEELLLKDQQTAKKL [ECM29],2.82 ± 0.091
26,SSLLSRLISSKMPGGFT [FAS2],2.51 ± 0.069

row,Sequence,protein stability index
1,SSLRNQELLNAETLCFT [RPN3],2.89 ± 0.11
2,SSNIVNENDSQAIITER [YIL149C/MLP2],3.14 ± 0.12
3,SSNLYETIIEADKSLPS [YJR042W/NUP85],2.76 ± 0.054
4,SSNPQSAYVKAFYQKGN [SMC1],1.87 ± 0.049
5,SSNSQQSTPQPDDMVEI [ITC1],3.09 ± 0.064
6,SSNVQQPQQQLGDMENN [RTT102],3.21 ± 0.19
7,SSRFIKGGSLYGLGLIY [RPN2],2.07 ± 0.09
8,SSRLEFVKGISRDIKAL [YML103C/NUP188],2.39 ± 0.081
9,SSTDFSTCIVSLIRNNL [ECM29],2.7 ± 0.066
10,SSTITGDVVLAAAYSHE [RPL5],2.32 ± 0.056
11,SSTKPPGSVNSAAKYKD [NUT1],2.68 ± 0.064
12,SSVNEDTFLPPPPPPPS [PRP8],2.73 ± 0.041
13,STAIKSLVALGIDPQDL [CDC53],2.29 ± 0.077
14,STATRNVTMIDDLIHFT [COR1],2.68 ± 0.097
15,STGDYTFTIQLLKLTKV [YML103C/NUP188],1.58 ± 0.075
16,STIPTRENGKGGQIAHI [ROX3],3.01 ± 0.11
17,STKSNKTRNPLTHSTPK [RPL8A],2.44 ± 0.29
18,STLQHFQETLDSTVVYP [MED8],2.99 ± 0.068
19,STSFSFNAPATGNGTTT [YOR098C/NUP1],2.73 ± 0.042
20,STSLGIPDFRSSEGFYS [SIR2],1.85 ± 0.27
21,STVKKKDIVNISIPKTC [REC8],2.71 ± 0.088
22,SVALHRHSNALVDILPP [RPT3],1.63 ± 0.047
23,SVANTPSEIPDAHKAEQ [SWI3],3.04 ± 0.066
24,SVDDVLSALDHIGHSAL [DPB4],3.26 ± 0.2
25,SVDESARIKDAFITQLE [YJL039C/NUP192],3.03 ± 0.12
26,SVDICNNSKSRYPMNLL [ECM29],1.86 ± 0.1
